Assay results reported in patent US20140017242A1, “ANTI-BRADYKININ B2 RECEPTOR (BKB2R) MONOCLONAL ANTIBODY” (Diamedica, Inc., priority 2010, published 2014).
Values joined by “and” are separate entries in the source; they are usually repeats but may differ in a detail not shown here. Identical values can stand only once.

Legend:
[1] = tested on: ZDF fa/fa rats; experiment: Oral glucose tolerance test in ZDF fa/fa rats, humanized mAbs; format: in vivo, rat; conditions: single s.c. administration 0.2 mg/kg
Text: This example describes evaluation of mouse mAb 5F12G1 and its twelve humanized clones in Zucker Diabetic fatty (ZDF fa/fa) rats for effects on insulin sensitivity in animals. Zucker Diabetic Rats develop symptoms similar to type 2 diabetes and are genetically resistant to insulin. […] Therefore, the Zucker rat is a good model to test the ability of the monoclonal antibody to increase insulin sensitivity, especially in an OGTT.
Male ZDF fa/fa rats were obtained from Charles River (Kingston, ON). Upon arrival, rats were ten weeks of age. The rats were housed individually per cage in a room with a photo cycle of 12 hours of light and 12 hours of dark and an ambient temperature of 70-72° F. and fed on regular rodent diet and water ad libitum. After seven days of acclimatization, rats were grouped into fourteen groups of three rats per group (Table 10).
Oral Glucose Tolerance Test. An oral glucose tolerance test (OGTT) was performed on overnight fasted (16 hours) rats. Rats received subcutaneously administered humanized mAbs, mouse mAb 5F12G1 (positive control) and PBS (vehicle control) at a dose of 0.2 mg/kg body weight, thirty minutes prior to glucose administration. D-Glucose was prepared in distilled water and administered orally at 2 g/kg body weight. Blood glucose levels were measured before administration of humanized mAbs, 5F12G1 or vehicle (t=−30 minutes) and just before glucose loading (0 minute), and at timepoints of 30, 60, 90 and 120 minutes, using Accu-chek™ glucose meter.

[2] = tested on: influenza strain A/Brisbane/07 (H1N1); format: cell-based, influenza virus
[3] = tested on: Sprague Dawley Rats; experiment: Hyperinsulinemic-euglycemic clamp in Sprague Dawley rats; format: in vivo, rat
Description: The hyperinsulinemic euglycemic clamp has been considered to as the standard in vivo technique for measuring insulin sensitivity effects of type 2 diabetes drugs. In this procedure, insulin is administered to a test animal to raise the insulin concentration, while glucose is infused to maintain euglycemia. The glucose infusion rate (GIR) needed to maintain euglycemia is a reflection of insulin action or improved insulin sensitivity. The bradykinin receptor agonist (anti-BKB2R) monoclonal antibody clone 5F12G1 was tested in a euglycemic clamp study to measure its ability to improve insulin sensitivity.
Healthy young male Sprague Dawley Rats weighing 275-300 g were used for the study (Harlan Laboratory, Indianapolis, USA). The rats were maintained in a controlled environment at a temperature of 70-72° F., humidity 30-70%, with a photo cycle of 12 hours of light and 12 hours of dark. They were provided with TEKLAD™ 2018-Global 18% diet and drinking water ad libitum. After seven days of acclimatization, rats were grouped in groups of four.
Animals were anesthetized with an intraperitoneal injection of ketamine-plus-xylazine cocktail and the right jugular vein and left carotid artery were catheterized externally through an incision in the skin flap. The catheterized animals were allowed to recover for five days. After five days of recovery, animals were fasted for six hours and a 120-minute hyperinsulimic-euglycemic clamp was applied with continuous infusion of human insulin (Humulin, Eli Lilly, Indianapolis, Ind.) at a constant rate of 4mU/kg/minute. […] Both insulin and glucose were infused through catheterized right jugular vein and blood glucose levels were monitored from the catheterized carotid artery. Arterial blood glucose levels and plasma insulin levels were measured prior to infusion at t=−120, −90, −30, −15 and 0 minutes and then at every 10 minutes for 120 minutes (t=120), using a Glucose meter (Accu-Chek™ Roche Diagnostics, Indianapolis, Ind.) and a rat insulin ELISA kit. […]

B1: 5F12G1: murine monoclonal anti-BKB2R antibody (IgG2b,κ), VH comprising SEQ ID NO:1, VL comprising SEQ ID NO:2 (antibody, listed as Mus musculus, V domains shown)
VH: EVKLEESGGGLVQPGGSMKLSCVVSGFTFSDYWMSWVRHSPEMGLEWVAEIRLKSDNYATHYAESVKGRFTISRDDSKSRLYLQINSLRGEDTGIYYCTRDYYAMEYWGQGTSVTVSS
VL: DVVMTQTPLSLPVSLGDQASISCRSSQTIVHSNGKTYLEWYLQKPGQSPKLLIYKVSNRFSGVPDRFSGSGSGTEFTLKISRVETEDLGVYYCFQASHVPYTFGGGTKLEIK
- glucose tolerance [1]: showed improvement in glucose tolerance
- area under curve (AUC) of blood glucose concentration after oral administration of glucose, compared to vehicle control ([1]; 30 min prior to glucose 2 g/kg): decreased
- +/− Result FAM [2]: Positive
- dose dependence of the reduction of viral titer / viral genomic copies ([2]; A549 cells, qRT-PCR, FIGS. 5 to 8): decreased viral titer in a dose-dependent manner
- reduction in viral titer ([2]; highest tested concentration of 100 μg/ml): 100 fold
- Ct FAM ([2]; listed as G1): 36.21 and 30.38 and 35.93 and 30.08 and 37.95 and 32.97 and 34.96 and 34.02
- increase in total glucose infusion rate AUC compared to vehicle ([3]; 0.5 mg/kg i.m. at t=−30 min, 120-minute clamp): 179%
- peak increase of glucose infusion rate compared to vehicle ([3]; 0.5 mg/kg i.m. at t=−30 min, t=60 min): 291%
- Calculated Glucose Infusion Rate Area Under the Curve ([3]; 0.5 mg/kg i.m., individual animals # 1-4): 4560 mg/kg and 4317 mg/kg and 3243 mg/kg and 2685 mg/kg
